Assays:
[1] = target: HIV-1 JR-FL Env glycoprotein (unlabelled) on HIV-1 Gag-GFP pseudovirions (HIV-1 JR-FL, UniProt Q75760, strain); assay: single-molecule photobleaching of immunostained virions
[2] = target: HIV-1 NL4-3 Env glycoprotein (unlabelled) on HIV-1 Gag-GFP pseudovirions (HIV-1 group M subtype B, NL4-3 (pNL4-3), strain); assay: as above

B1: anti-HIV-1 gp41 monoclonal antibody 10E8 (antibody, V domains shown)
VH: EVQLVESGGGLVKPGGSLRLSCSASGFDFDNAWMTWVRQPPGKGLEWVGRITGPGEGWSVDYAAPVEGRFTISRLNSINFLYLEMNNLRMEDSGLYFCARTGKYYDFWSGYPPGEEYFQDWGRGTLVTVSS
VL: SYELTQETGVSVALGRTVTITCRGDSLRSHYASWYQKKPGQAPILLFYGKNNRPSGVPDRFSGSASGNRASLTISGAQAEDDAEYYCSSRDKSGSRLSVFGGGTKLTVL
B1: binds [1]; binds [2].

B2: anti-HIV-1 gp120 monoclonal antibody PGT145 (antibody, V domains shown)
VH: QVQLVQSGAEVKKPGSSVKVSCKASGNSFSNHDVHWVRQATGQGLEWMGWMSHEGDKTGLAQKFQGRVTITRDSGASTVYMELRGLTADDTAIYYCLTGSKHRLRDYFLYNEYGPNYEEWGDYLATLDVWGHGTAVTVSS
VL: EVVITQSPLFLPVTPGEAASLSCKCSHSLQHSTGANYLAWYLQRPGQTPRLLIHLATHRASGVPDRFSGSGSGTDFTLKISRVESDDVGTYYCMQGLHSPWTFGQGTKVEIK
B2: binds [1]; binds [2].

Source: article doi:10.1101/2020.08.16.252742 (bioRxiv, 2020)
